Test results from patent US20240343824A1 (MERUS N V, published 2024).

Columns and labels:
[1] = molecular target: human ZNRF3(ECD) on Freestyle 293F cells (human); assay: FACS on a mix of DiD-labelled ZNRF3 over-expressing and unlabelled parental 293F Freestyle cells, secondary reagents (anti-M13 and Strep-PE) only; Q3 0,120% [continued]
[2] = molecular target: T1, recombinant human LGR5-Fc (human, UniProt O75473 22-561); assay: R-Spondin3 blocking ELISA: 0,031 µg/ml rhLGR5-Fc on 2 µg/ml coated rhR-Spondin3, competitor 15 µg/ml soluble R-Spondin3, detection anti-Fc, OD450 normalised to maximum binding
T1 construct: extracellular domain; also called rhLGR5-Fc (RND systems Cat. Nr. 8078-GP); not shown: Fc part of the bought fusion protein
T1 sequence (looked up): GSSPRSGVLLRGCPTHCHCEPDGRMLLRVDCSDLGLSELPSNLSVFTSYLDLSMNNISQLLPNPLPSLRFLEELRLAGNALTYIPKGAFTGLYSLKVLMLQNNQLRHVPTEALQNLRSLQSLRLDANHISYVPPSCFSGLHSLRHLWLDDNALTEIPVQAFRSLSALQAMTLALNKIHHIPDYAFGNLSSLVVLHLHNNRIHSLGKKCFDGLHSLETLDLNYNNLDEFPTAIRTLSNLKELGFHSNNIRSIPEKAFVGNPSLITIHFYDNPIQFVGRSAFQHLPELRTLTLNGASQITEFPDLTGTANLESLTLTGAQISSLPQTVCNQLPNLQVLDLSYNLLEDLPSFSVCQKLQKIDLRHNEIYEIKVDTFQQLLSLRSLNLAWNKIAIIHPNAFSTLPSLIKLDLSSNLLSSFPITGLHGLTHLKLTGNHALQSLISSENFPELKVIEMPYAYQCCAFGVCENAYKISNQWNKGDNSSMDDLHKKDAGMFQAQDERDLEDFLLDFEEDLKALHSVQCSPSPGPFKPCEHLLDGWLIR

[3] = molecular target: T2, full length human LGR5-FLAG-HA on Freestyle 293F or CHO-K1 cells (human, UniProt O75473 22-907); assay: competition FACS on CHO-K1 cells over-expressing human LGR5; competitor PG7711p02 (OMP88R20 copy) fixed at 50 ng/ml, detected with anti-human IgG PE; MFI normalised to no R-spondin1
T2 construct: also called hLGR5; hLGR5(FL)
T2 sequence: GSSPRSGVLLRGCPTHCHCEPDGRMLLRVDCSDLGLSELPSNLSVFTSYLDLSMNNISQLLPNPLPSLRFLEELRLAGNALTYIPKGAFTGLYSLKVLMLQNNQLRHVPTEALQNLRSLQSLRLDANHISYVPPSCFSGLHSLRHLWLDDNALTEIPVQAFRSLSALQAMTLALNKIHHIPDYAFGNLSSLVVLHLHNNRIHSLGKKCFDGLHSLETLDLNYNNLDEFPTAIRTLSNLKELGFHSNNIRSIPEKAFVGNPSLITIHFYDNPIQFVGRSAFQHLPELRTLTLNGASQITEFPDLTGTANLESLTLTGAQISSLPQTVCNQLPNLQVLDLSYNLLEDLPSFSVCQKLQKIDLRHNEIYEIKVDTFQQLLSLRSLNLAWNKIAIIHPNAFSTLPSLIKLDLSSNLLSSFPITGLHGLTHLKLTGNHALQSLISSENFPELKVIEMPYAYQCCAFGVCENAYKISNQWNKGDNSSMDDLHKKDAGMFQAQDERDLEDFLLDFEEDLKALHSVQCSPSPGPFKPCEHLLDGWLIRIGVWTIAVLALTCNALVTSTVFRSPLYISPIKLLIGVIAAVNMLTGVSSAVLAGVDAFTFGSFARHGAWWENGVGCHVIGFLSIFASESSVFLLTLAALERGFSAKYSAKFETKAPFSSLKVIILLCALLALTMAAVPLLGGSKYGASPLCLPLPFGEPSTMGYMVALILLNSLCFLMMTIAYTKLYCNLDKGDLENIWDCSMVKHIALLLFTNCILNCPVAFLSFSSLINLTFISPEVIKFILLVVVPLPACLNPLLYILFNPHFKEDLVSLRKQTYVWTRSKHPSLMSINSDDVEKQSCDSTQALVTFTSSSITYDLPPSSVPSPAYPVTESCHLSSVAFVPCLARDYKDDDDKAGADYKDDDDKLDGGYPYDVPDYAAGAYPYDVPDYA

Sequence of human ZNRF3(ECD) on Freestyle 293F cells (human) (chain, as listed by the source): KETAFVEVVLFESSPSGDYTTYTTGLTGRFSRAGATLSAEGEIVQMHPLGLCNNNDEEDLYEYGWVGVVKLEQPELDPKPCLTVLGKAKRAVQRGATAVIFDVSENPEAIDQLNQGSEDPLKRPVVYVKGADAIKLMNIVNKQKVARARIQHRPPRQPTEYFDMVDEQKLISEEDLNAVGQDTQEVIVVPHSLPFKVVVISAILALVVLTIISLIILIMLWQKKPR

Q: How did the % of events in Q2 (DiD-positive and PE-positive) [1] turn out when -Control was run?
A: 0.18%

B1: recombinant human R-Spondin3 (ligand, UniProt Q9BXY4 22-272, looked up)
chain: QNASRGRRQRRMHPNVSQGCQGGCATCSDYNGCLSCKPRLFFALERIGMKQIGVCLSSCPSGYYGTRYPDINKCTKCKADCDTCFNKNFCTKCKSGFYLHLGKCLDNCPEGLEANNHTMECVSIVHCEVSEWNPWSPCTKKGKTCGFKRGTETRVREIIQHPSAKGNLCPPTNETRKCTVQRKKCQKGERGKKGRERKRKKPNKGESKEAIPDSKSLESSKEIPEQRENKQQQKKRKVQDKQKSVSVSTVH
notes: also called rhR-Spondin3; R-Spondin3 (RND systems)
Q: Does B1 bind [2]?
A: binds

B2: R-spondin1 (ligand, UniProt Q2MKA7 21-263, looked up)
chain: SRGIKGKRQRRISAEGSQACAKGCELCSEVNGCLKCSPKLFILLERNDIRQVGVCLPSCPPGYFDARNPDMNKCIKCKIEHCEACFSHNFCTKCKEGLYLHKGRCYPACPEGSSAANGTMECSSPAQCEMSEWSPWGPCSKKQQLCGFRRGSEERTRRVLHAPVGDHAACSDTKETRRCTVRRVPCPEGQKRRKGGQGRRENANRNLARKESKEAGAGSRRRKGQQQQQQQGTVGPLTSAGPA
notes: also called RSPO1; R-spondin1 (R&D Systems, cat. nr. 4645-RF/CF)
Q: With B2 as the molecule, how does the “IC50 (read off the curve)” value [3] read?
A: ~10 nM
